The text below walks through data of patent US20110135672A1 (MEDICAL COLLEGE OF GEORGIA RESEARCH INSTITUTE INC GEORGIA, published 2011).

This assay deals with T1, ILT4 receptor on dendritic cells of ILT4 transgenic mice (UniProt Q8N423 22-597, limits assumed).
T1 construct: whole, on cells; also called LILRB2; CD85d
The assay is described as follows: immunoprecipitation with anti-ILT4 antibody, immunoblot with anti-Csk antibody. In general terms: Immunoblotting shows a protein as a band on a membrane.

T1 sequence (Q8N423 22-597 limits assumed): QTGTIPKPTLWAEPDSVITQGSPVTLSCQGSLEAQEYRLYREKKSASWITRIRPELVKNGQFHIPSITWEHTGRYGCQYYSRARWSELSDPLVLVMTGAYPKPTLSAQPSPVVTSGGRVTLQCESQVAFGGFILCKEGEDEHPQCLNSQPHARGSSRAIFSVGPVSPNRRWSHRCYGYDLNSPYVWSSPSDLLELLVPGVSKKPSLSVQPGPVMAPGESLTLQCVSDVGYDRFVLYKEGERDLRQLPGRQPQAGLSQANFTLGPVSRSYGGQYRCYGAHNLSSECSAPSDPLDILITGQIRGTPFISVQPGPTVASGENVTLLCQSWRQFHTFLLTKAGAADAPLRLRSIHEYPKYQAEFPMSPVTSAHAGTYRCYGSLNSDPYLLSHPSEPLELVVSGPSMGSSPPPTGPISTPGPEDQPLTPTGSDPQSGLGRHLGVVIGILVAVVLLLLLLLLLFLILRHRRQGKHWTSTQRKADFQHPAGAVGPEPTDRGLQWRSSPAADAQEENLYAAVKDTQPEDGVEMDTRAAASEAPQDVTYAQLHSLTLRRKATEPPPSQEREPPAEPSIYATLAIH
Procedure: The pellets from 5×10⁶ untreated DCs and DCs treated with HLA-G ligands and LPS were lysed in 1 ml RIPA buffer and precleared several times with Sepharose-coupled protein A (50% wt/vol slurry). Proteins were immunoprecipitated with saturating amounts of anti-ILT4 mAb and protein G Sepharose (Amersham Biosciences). Immunoprecipitation experiments were performed using several ILT4-specific antibodies, including polyclonal anti-ILT4 (C-12), anti-ILT4 (N-14), anti-ILT4 (P-14), anti-ILT (H-300), and anti-ILT4 (42D1) mAb (all from Santa Cruz Biotechnology, Santa Cruz, Calif.). […] The immunoblot was reprobed with anti-SHP-1 and anti-SHP-2 antibodies (both Upstate), and anti-Csk antibody (Santa Cruz Biotechnology). Signals were developed using the enhanced chemoluminescence (ECL) system (Amersham Biosciences). In some cases, densitometric scans of bands were obtained to determine the extent of ILT4-mediated signal inhibition.

B1: C-terminal Src kinase (Csk) (enzyme, mouse, UniProt P41241 2-450, looked up)
chain: SAIQAAWPSGTECIAKYNFHGTAEQDLPFCKGDVLTIVAVTKDPNWYKAKNKVGREGIIPANYVQKREGVKAGTKLSLMPWFHGKITREQAERLLYPPETGLFLVRESTNYPGDYTLCVSCEGKVEHYRIMYHASKLSIDEEVYFENLMQLVEHYTTDADGLCTRLIKPKVMEGTVAAQDEFYRSGWALNMKELKLLQTIGKGEFGDVMLGDYRGNKVAVKCIKNDATAQAFLAEASVMTQLRHSNLVQLLGVIVEEKGGLYIVTEYMAKGSLVDYLRSRGRSVLGGDCLLKFSLDVCEAMEYLEGNNFVHRDLAARNVLVSEDNVAKVSDFGLTKEASSTQDTGKLPVKWTAPEALREKKFSTKSDVWSFGILLWEIYSFGRVPYPRIPLKDVVPRVEKGYKMDAPDGCPPAVYEVMKNCWHLDAATRPTFLQLREQLEHIKTHELHL
For B1, the binding result is “no binding”.
